Patent publication US9872922B2, “Anti-EFNA4 antibody-drug conjugates” (PFIZER, INC., priority 2013, dated 2018)

T1: human Ephrin-A4 (Homo sapiens, UniProt P52798)
T1 construct: purchased
T1 sequence (P52798 26-170): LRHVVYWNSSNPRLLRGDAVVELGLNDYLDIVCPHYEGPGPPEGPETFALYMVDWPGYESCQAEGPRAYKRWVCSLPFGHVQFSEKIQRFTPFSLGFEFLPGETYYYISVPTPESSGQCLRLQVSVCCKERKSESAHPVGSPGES

B1: EphA10: recombinant Eph receptor captured on biosensor chip (protein)
chain: EEVILLDSKASQAELGWTALPSNGWEEISGVDEHDRPIRTYQVCNVLEPNQDNWLQTGWISRGRGQRIFVELQFTLRDCSSIPGAAGTCKETFNVYYLETEADLGRGRPRLGGSRPRKIDTIAADESFTQGDLGERKMKLNTEVREIGPLSRRGFHLAFQDVGACVALVSVRVYYKQCRATVRGLATFPATAAESAFSTLVEVAGTCVAHSEGEPGSPPRMHCGADGEWLVPVGRCSCSAGFQERGDFCEACPPGFYKVSPRRPLCSPCPEHSRALENASTFCVCQDSYARSPTDPPSASCTRPPSAPRDLQYSLSRSPLVLRLRWLPPADSGGRSDVTYSLLCLRCGREGPAGACEPCGPRVAFLPRQAGLRERAATLLHLRPGARYTVRVAALNGVSGPAAAAGTTYAQVTVSTGPGAPWEEDEIRRDRVEPQSVSLSWREPIPAGAPGANDTEYEIRYYEKGQSEQTYSMVKTGAPTVTVTNLKPATRYVFQIRAASPGPSWEAQSFNPSIEVQTLGEAASGSRDQSPA
B2: EphB2 (protein)
chain: VEETLMDSTTATAELGWMVHPPSGWEEVSGYDENMNTIRTYQVCNVFESSQNNWLRTKFIRRRGAHRIHVEMKFSVRDCSSIPSVPGSCKETFNLYYYEADFDSATKTFPNWMENPWVKVDTIAADESFSQVDLGGRVMKINTEVRSFGPVSRSGFYLAFQDYGGCMSLIAVRVFYRKCPRIIQNGAIFQETLSGAESTSLVAARGSCIANAEEVDVPIKLYCNGDGEWLVPIGRCMCKAGFEAVENGTVCRGCPSGTFKANQGDEACTHCPINSRTTSEGATNCVCRNGYYRADLDPLDMPCTTIPSAPQAVISSVNETSLMLEWTPPRDSGGREDLVYNIICKSCGSGRGACTRCGDNVQYAPRQLGLTEPRIYISDLLAHTQYTFEIQAVNGVTDQSPFSPQFASVNITTNQAAPSAVSIMHQVSRTVDSITLSWSQPDQPNGVILDYELQYYEKELSEYNATAIKSPTNTVTVQGLKAGAIYVFQVRARTVAGYGRYSGKMYFQTMTEAEYQTSIQEKLPL
B3: EphA1 (protein)
chain: KEVTLMDTSKAQGELGWLLDPPKDGWSEQQQILNGTPLYMYQDCPMQGRRDTDHWLRSNWIYRGEEASRVHVELQFTVRDCKSFPGGAGPLGCKETFNLLYMESDQDVGIQLRRPLFQKVTTVAADQSFTIRDLVSGSVKLNVERCSLGRLTRRGLYLAFHNPGACVALVSVRVFYQRCPETLNGLAQFPDTLPGPAGLVEVAGTCLPHARASPRPSGAPRMHCSPDGEWLVPVGRCHCEPGYEEGGSGEACVACPSGSYRMDMDTPHCLTCPQQSTAESEGATICTCESGHYRAPGEGPQVACTGPPSAPRNLSFSASGTQLSLRWEPPADTGGRQDVRYSVRCSQCQGTAQDGGPCQPCGVGVHFSPGARGLTTPAVHVNGLEPYANYTFNVEAQNGVSGLGSSGHASTSVSISMGHAESLSGLSLRLVKKEPRQLELTWAGSRPRSPGANLTYELHVLNQDEERYQMVLEPRVLLTELQPDTTYIVRVRMLTPLGPGPFSPDHEFRTSPPVSRGLTGGE
B4: EphA3 (protein)
chain: ELIPQPSNEVNLLDSKTIQGELGWISYPSHGWEEISGVDEHYTPIRTYQVCNVMDHSQNNWLRTNWVPRNSAQKIYVELKFTLRDCNSIPLVLGTCKETFNLYYMESDDDHGVKFREHQFTKIDTIAADESFTQMDLGDRILKLNTEIREVGPVNKKGFYLAFQDVGACVALVSVRVYFKKCPFTVKNLAMFPDTVPMDSQSLVEVRGSCVNNSKEEDPPRMYCSTEGEWLVPIGKCSCNAGYEERGFMCQACRPGFYKALDGNMKCAKCPPHSSTQEDGSMNCRCENNYFRADKDPPSMACTRPPSSPRNVISNINETSVILDWSWPLDTGGRKDVTFNIICKKCGWNIKQCEPCSPNVRFLPRQFGLTNTTVTVTDLLAHTNYTFEIDAVNGVSELSSPPRQFAAVSITTNQAAPSPVLTIKKDRTSRNSISLSWQEPEHPNGIILDYEVKYYEKQEQETSYTILRARGTNVTISSLKPDTIYVFQIRARTAAGYGTNSRKFEFETSPDSFSISGESSQ
B5: EphA6 (protein)
chain: WPGDCSHVSNNQVVLLDTTTVLGELGWKTYPLNGWDAITEMDEHNRPIHTYQVCNVMEPNQNNWLRTNWISRDAAQKIYVEMKFTLRDCNSIPWVLGTCKETFNLFYMESDESHGIKFKPNQYTKIDTIAADESFTQMDLGDRILKLNTEIREVGPIERKGFYLAFQDIGACIALVSVRVFYKKCPFTVRNLAMFPDTIPRVDSSSLVEVRGSCVKSAEERDTPKLYCGADGDWLVPLGRCICSTGYEEIEGSCHACRPGFYKAFAGNTKCSKCPPHSLTYMEATSVCQCEKGYFRAEKDPPSMACTRPPSAPRNVVFNINETALILEWSPPSDTGGRKDLTYSVICKKCGLDTSQCEDCGGGLRFIPRHTGLINNSVIVLDFVSHVNYTFEIEAMNGVSELSFSPKPFTAITVTTDQDAPSLIGVVRKDWASQNSIALSWQAPAFSNGAILDYEIKYYEKEHEQLTYSSTRSKAPSVIITGLKPATKYVFHIRVRTATGYSGYSQKFEFETGDETSDMAAEQGQILV
B6: EphA7 (protein)
chain: QAAKEVLLLDSKAQQTELEWISSPPNGWEEISGLDENYTPIRTYQVCQVMEPNQNNWLRTNWISKGNAQRIFVELKFTLRDCNSLPGVLGTCKETFNLYYYETDYDTGRNIRENLYVKIDTIAADESFTQGDLGERKMKLNTEVREIGPLSKKGFYLAFQDVGACIALVSVKVYYKKCWSIIENLAIFPDTVTGSEFSSLVEVRGTCVSSAEEEAENAPRMHCSAEGEWLVPIGKCICKAGYQQKGDTCEPCGRGFYKSSSQDLQCSRCPTHSFSDKEGSSRCECEDGYYRAPSDPPYVACTRPPSAPQNLIFNINQTTVSLEWSPPADNGGRNDVTYRILCKRCSWEQGECVPCGSNIGYMPQQTGLEDNYVTVMDLLAHANYTFEVEAVNGVSDLSRSQRLFAAVSITTGQAAPSQVSGVMKERVLQRSVELSWQEPEHPNGVITEYEIKYYEKDQRERTYSTVKTKSTSASINNLKPGTVYVFQIRAFTAAGYGNYSPRLDVATLEEATGKMFEATAVSSEQNPV
B7: EphB3 (protein)
chain: GCRALEETLMDTKWVTSELAWTSHPESGWEEVSGYDEAMNPIRTYQVCNVRESSQNNWLRTGFIWRRDVQRVYVELKFTVRDCNSIPNIPGSCKETFNLFYYEADSDVASASSPFWMENPYVKVDTIAPDESFSRLDAGRVNTKVRSFGPLSKAGFYLAFQDQGACMSLISVRAFYKKCASTTAGFALFPETLTGAEPTSLVIAPGTCIPNAVEVSVPLKLYCNGDGEWMVPVGACTCATGHEPAAKESQCRPCPPGSYKAKQGEGPCLPCPPNSRTTSPAASICTCHNNFYRADSDSADSACTTVPSPPRGVISNVNETSLILEWSEPRDLGGRDDLLYNVICKKCHGAGGASACSRCDDNVEFVPRQLGLTERRVHISHLLAHTRYTFEVQAVNGVSGKSPLPPRYAAVNITTNQAAPSEVPTLRLHSSSGSSLTLSWAPPERPNGVILDYEMKYFEKSEGIASTVTSQMNSVQLDGLRPDARYVVQVRARTVAGYGQYSRPAEFETTSERGSGAQQLQEQLPL

Molecular target: T1, human Ephrin-A4
Test: SPR steady state affinity of Eph receptors for Ephrin-A4
Assay type: binding
Conditions: for Kd: SPR BIAcore 2000, steady state affinity fit, captured Eph receptor, monomeric human Ephrin-A4 as analyte; for rank of affinity for Ephrin-A4 among nine Eph receptors: steady state affinity
Protocol: The properties of Ephrin-A4 binding to Eph receptors were further analyzed. Since anti-EFNA4 antibodies bind to Ephrin-A4 while the ligand is engaged with its Eph receptor, the affinity between these two macromolecules was determined. The affinities of commercially available Eph receptors and Ephrin-A4 were directly compared by surface plasmon resonance using a BIAcore 2000 (GE Healthcare) to determine the most relevant receptor. An anti-human antibody capture kit was used to immobilize recombinant Eph receptors on a CM5 biosensor chip. Prior to each antigen injection cycle, Eph receptors at the concentration of 2 μg/mL were captured on the surface with a contact time of 2 minutes and a flow rate of 5 μL/min. The captured antibody loading from baseline was constant at 150-260 response units. Following receptor capture and 1 min baseline, monomeric human Ephrin-A4 was flowed over the surface at concentrations of 400, 241, 145, 87, 53, 32, 19 and 12 nM for a 2 minute association phase followed by a 2 minute dissociation phase at a flow rate of 10 μL/min. Following each cycle, the anti-human capture surface was regenerated with 30 seconds contact time of 3M MgCl2 at 10 μL/min.
Biacore data was processed by initially calculating an average of the response at equilibrium (Req). The Req was then plotted versus concentration (M) and the steady state affinity fit was used to calculate the affinity and theoretical Rmax. In all cases, at least 5 different analyte concentrations were used to make this calculation. All data analysis steps were completed in BiaEvaluation Software 3.1 (GE Healthcare).

| Molecule | Kd [nM] | rank of affinity for Ephrin-A4 among nine Eph receptors |
| --- | --- | --- |
| EphA2: recombinant Eph receptor captured on biosensor chip [reference compound] | 31 | highest affinity |
| B1 | 431 | lowest affinity |
| B2 | 135 |  |
| B3 | 414 |  |
| B4 | 77 |  |
| B5 | 82 |  |
| B6 | 86 |  |
| B7 | 108 |  |
